Results published in paper PMC5344210.

What was measured:
[1] = biological target: UL141-GPI (GPI-anchored ectodomain of HCMV UL141, FIX strain) (human cytomegalovirus (FIX strain)) (UniProt Q6RJQ3); test: flow cytometry on cells
[2] = DISC immunoprecipitation and immunoblot, U2OS; details: glycan lost; control: TRAIL-R1 WT
[3] = immunofluorescence of receptor clustering after TRAIL, U2OS; details: glycan lost; control: TRAIL-R1 WT
[4] = DISC immunoprecipitation and immunoblot, reconstituted DKO cells; details: glycan lost; control: TRAIL-R1 WT
[5] = anti-TRAIL-R1 immunofluorescence after His-hTRAIL, reconstituted DKO cells; details: glycan lost; control: TRAIL-R1 WT
[6] = surface flow cytometry with MD5-1, B16; details: glycan lost; control: WT mTRAIL-R
[7] = receptor clustering upon ligand binding, B16 and U2OS; details: glycan lost; control: WT mTRAIL-R
receptor internalization = details: glycan lost; control: WT mTRAIL-R

UniProt Q6RJQ3, sequence (Q6RJQ3 37-278): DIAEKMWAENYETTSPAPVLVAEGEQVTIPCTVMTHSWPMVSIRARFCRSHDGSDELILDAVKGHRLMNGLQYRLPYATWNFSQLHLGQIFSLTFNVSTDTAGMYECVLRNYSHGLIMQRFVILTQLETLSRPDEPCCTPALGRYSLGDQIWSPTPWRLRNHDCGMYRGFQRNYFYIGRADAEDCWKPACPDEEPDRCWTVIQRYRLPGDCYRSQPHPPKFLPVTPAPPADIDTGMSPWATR

## TRAIL-R1-Fc N156A (N-glycosylation-deficient human TRAIL-R1 fused to human Fc IgG1) (from UniProt O00220 24-239) (Fc fusion)
[1]
  fold higher binding affinity than glycosylated TRAIL-R1: 5 fold

## TRAIL-R1: N156A
[2]
  other: DISC formation (caspase-8/-10 recruitment): decreases
[3]
  oligomerisation: decreases
[4]
  other: DISC formation (caspase-8/-10 recruitment): decreases
[5]
  oligomerisation: decreases

B1: mTRAIL-R (mouse TRAIL receptor): N99A (protein)
parent chain: MEPPGPSTPTASAAARADHYTPGLRPLPKRRLLYSFALLLAVLQAVFVPVTANPAHNRPAGLQRPEESPSRGPCLAGQYLSEGNCKPCREGIDYTSHSNHSLDSCILCTVCKEDKVVETRCNITTNTVCRCKPGTFEDKDSPEICQSCSNCTDGEEELTSCTPRENRKCVSKTAWASWHKLGLWIGLLVPVVLLIGALLVWKTGAWRQWLLCIKRGCERDPESANSVHSSLLDRQTSSTTNDSNHNTEPGKTQKTGKKLLVPVNGNDSADDLKFIFEYCSDIVPFDSWNRLMRQLGLTDNQIQMVKAETLVTREALYQMLLKWRHQTGRSASINHLLDALEAVEERDAMEKIEDYAVKSGRFTYQNAAAQPETGPGGSQCV
[6]
  expression_or_secretion: no change

B2: mTRAIL-R (mouse TRAIL receptor): N99/122/150A (protein)
parent chain: B1 parent chain
[6]
  expression_or_secretion: decreases
[7]
  oligomerisation: decreases

B3: mTRAIL-R (mouse TRAIL receptor): N99/150A (protein)
parent chain: B1 parent chain
[6]
  expression_or_secretion: no change

B4: mTRAIL-R (mouse TRAIL receptor): N122/150A (protein)
parent chain: B1 parent chain
[6]
  expression_or_secretion: no change

B5: mTRAIL-R (mouse TRAIL receptor): N99/122A (protein)
parent chain: B1 parent chain
[6]
  expression_or_secretion: no change
Receptor internalization
  localisation_or_trafficking: increases
[7]
  oligomerisation: decreases
